Measured values taken from patent publication US20120172293A1 (Takeda / Millennium, published 2012).

Legend:
[1] = target: human Y2 receptor (human) (UniProt P49146); experiment: cell-based or functional assay
[2] = target: human Y2 receptor (human) (UniProt P49146); experiment: RBA: [125I]-PYY displacement, hY2R/CHO membranes

GBA EC50 Ratio (vs PYY(3-36)), [35S]GTPγS [1]	IC50 Ratio (vs PYY(3-36)) [2]	Substance
2.5	5.4	[Lys(Ac)23, D-Pro24, Cha27,28,36, Aib31]-PYY(23-36) (peptide)
0.9	0.9	[(PEG2)23, D-Pro24, Cha27,28,36, Aib31]-PYY(23-36) (peptide)
3.4	4	N-4-Pyridiniyl-[Pic(4)23, D-Pro24, Cha27,28,36, Aib31]-PYY(23-36) (peptide)
2.4	5.8	[N(iBu)Gly23, D-Pro24, Cha27,28,36, Aib31]-PYY(23-36) (peptide)
1.6	2.5	Ac-[Hse23, D-Pro24, Cha27,28,36, Aib31]-PYY(23-36) (peptide)
1.2	2.8	Ac-[Aad23, D-Pro24, Cha27,28,36, Aib31]-PYY(23-36) (peptide)
17	13	Ac-[Iva23, D-Pro24, Cha27,28,36, Aib31]-PYY(23-36) (peptide)
31	20	Ac-[D-Iva23, D-Pro24, Cha27,28,36, Aib31]-PYY(23-36) (peptide)
1.2	1.7	[βAla23, D-Pro24, Cha27,28,36, Aib31]-PYY(23-36) (peptide)
5	7.3	Ac-[Hyp23, D-Pro24, Cha27,28,36, Aib31]-PYY(23-36) (peptide)
1.3	1.8	Ac-[D-Pro24, Pya(4)26, Cha27,36, Aib28,31, Lys30]-PYY(23-36) (peptide)
1.3	0.92	Ac-[Lys(Me2)23, D-Pro24, Cha27,28,36, Aib31]-PYY(23-36) (peptide)
1.2	2	[N(2-hydroxyethyl)Gly23, D-Pro24, Cha27,28,36, Aib31]-PYY(23-36) (peptide)
